Source: patent US20200362049A1

Target: Recombinant, Histidine-tagged extracellular domain of human CD38 (human) (UniProt P28907)
Experiment: BLI (Forte Bio), 1:1 fit

Q: “IB4, reference monoclonal agonistic mouse anti-human CD38 antibody” was tested. Which Kd did it give?
A: 9 nM
